± gives the uncertainty stated by the source.
Assay: self-splicing fitness, log relative to wild type (ln ratio); higher = more splicing; Tetrahymena group I intron in knt gene, E. coli kanamycin selection, DiMSum; sequences stand for … in CUCUCU…GGAGGGAAAAGUUAUCAGGCAUGCACCUGGUAGCUAGUCUUUAAACCAAUAGAUUGCAUCGGUUUAAAAGGCAAGACCGUCAAAUUGCGGGAAAGGGGUCAACAGCCGUUCAGUACCAAGUCUCAGGGGAAACUUUGAGAUGGCCUUGCAAAGGGUAUGGUAAUAAGCUGACGGACAUGGUCCUAACCACGCAGCCAAGUCCUAAGUCAACAGAUCUUCUGUUGAUAUGGAUGCAGUUCACAGACUAAAUGUCGGUCGGGGAAGAUGUAUUCUUCUCAUAAGAUAUAGUCGGACCUCUCCUUAAUGGGAGCUAGCGGAUGAAGUGAUGCAACACUGGAGCCGCUGGGAACUAAUUUGUAUGCGAAAGUAUAUUGAUUAGUUUUGGAGUACUCGUGGUCG
Outline: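 Colonies from six replicate transformations of E. coli BL21(DE3) were pooled and amplicon-sequenced on an Illumina HiSeq 2500. The library placed an intron with all eight P1ex-region nucleotides randomised inside the knt kanamycin-resistance gene on pET-22b(+), and cells grew overnight at 37°C or 30°C on LB agar with or without 25 μg/mL kanamycin (plus 100 μg/mL carbenicillin, 50 μM IPTG, 0.2% rhamnose). Fitness is the DiMSum error-weighted combination of wild-type-normalised replicate fold changes, kanamycin versus none.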

Row | Sequence | self-splicing fitness (ln) (30 °C) | self-splicing fitness (ln) (37 °C)
1 | GUAUAGCAAUAUUACGGACA | -2.7 ± 0.27 | -1.1 ± 0.15
2 | GAUUAGCAAUAUUACGCGAG | -2.28 ± 0.17 | -0.865 ± 0.12
3 | ACAAAGCAAUAUUACGACGG | -1.06 ± 0.07 | -0.665 ± 0.093
4 | CGGAAGCAAUAUUACGCUGG | -1.62 ± 0.11 | -1.15 ± 0.17
5 | CACAAGCAAUAUUACGUGCA | -2.56 ± 0.11 | -1.55 ± 0.093
6 | UACGAGCAAUAUUACGACUA | -0.65 ± 0.085 | -0.167 ± 0.1
7 | GGACAGCAAUAUUACGCGCU | -1.92 ± 0.22 | -1.36 ± 0.34
8 | AAGGAGCAAUAUUACGCGUU | -2.22 ± 0.17 | -2.15 ± 0.23
9 | CUGAAGCAAUAUUACGAGCU | -3.42 ± 0.21 | -2.84 ± 0.27
10 | UGCGAGCAAUAUUACGCGCC | -2.45 ± 0.26 | -1.29 ± 0.27
11 | UCUAAGCAAUAUUACGUACC |  | -1.04 ± 0.47
12 | ACAAAGCAAUAUUACGGCUC | -0.452 ± 0.078 | -0.217 ± 0.12
13 | CAAAAGCAAUAUUACGCUCU | -1.6 ± 0.12 | -1.63 ± 0.16
14 | AGUCAGCAAUAUUACGAUCG | -0.601 ± 0.091 | 0.358 ± 0.14
15 | UUGUAGCAAUAUUACGGCGG | -0.508 ± 0.11 | -0.332 ± 0.14
16 | CAUAAGCAAUAUUACGCGAU | -3.46 ± 0.26 | -3.08 ± 0.28
17 | GAGAAGCAAUAUUACGCUAG | -1.66 ± 0.12 | -0.805 ± 0.15
18 | AAAGAGCAAUAUUACGGUCG | -2.47 ± 0.16 | -1.58 ± 0.15
19 | GAUGAGCAAUAUUACGACGU | -1.09 ± 0.094 | -0.283 ± 0.11
20 | CACAAGCAAUAUUACGCUUU | -4.46 ± 0.24 | -2.81 ± 0.17
21 | AAUAAGCAAUAUUACGAGAC | -3.14 ± 0.47 | -1.18 ± 0.23
22 | AUAUAGCAAUAUUACGAAAG | -3.28 ± 0.25 | -2.08 ± 0.38
23 | ACCUAGCAAUAUUACGGUAG | -3.45 ± 0.15 | -2.49 ± 0.18
24 | CUUGAGCAAUAUUACGUAGG | -1.79 ± 0.15 | -0.65 ± 0.15
25 | GUCGAGCAAUAUUACGUGGU | -3.5 ± 0.19 | -2.8 ± 0.19
26 | UGGAAGCAAUAUUACGUGGU | -3.53 ± 0.49 | -2.25 ± 0.3

Row | Sequence | self-splicing fitness (ln) (30 °C) | self-splicing fitness (ln) (37 °C)
27 | AAUCAGCAAUAUUACGGCGC | -0.736 ± 0.096 | 0.0282 ± 0.11
28 | AGCAAGCAAUAUUACGAGAG | -3.11 ± 0.2 | -2.42 ± 0.25
29 | CCAGAGCAAUAUUACGGCGC | -3.67 ± 0.25 | -2 ± 0.26
30 | UAGCAGCAAUAUUACGACGU | -1.14 ± 0.073 | -0.658 ± 0.1
31 | UAAGAGCAAUAUUACGUCCA | -3.08 ± 0.34 | -2.4 ± 0.41
32 | AGAUAGCAAUAUUACGGCUU | -0.346 ± 0.11 | -0.141 ± 0.097
33 | AUGUAGCAAUAUUACGCCAU | -2.41 ± 0.19 | -2.18 ± 0.24
34 | UAGAAGCAAUAUUACGCCCU | -0.743 ± 0.19 | 0.316 ± 0.22
35 | CUACAGCAAUAUUACGAAUG | -0.558 ± 0.059 | -0.464 ± 0.075
36 | GUCCAGCAAUAUUACGACGC | -0.776 ± 0.094 | 0.435 ± 0.12
37 | AGAAAGCAAUAUUACGCUUU | -3.57 ± 0.23 | -3.24 ± 0.4
38 | CCCCAGCAAUAUUACGAGGA | -2.66 ± 0.13 | -1.53 ± 0.11
39 | ACUCAGCAAUAUUACGCGGU | -3.73 ± 0.19 | -2.01 ± 0.21
40 | ACGUAGCAAUAUUACGGUUU | -2.03 ± 0.096 | -0.957 ± 0.11
41 | UCGAAGCAAUAUUACGCAGU | -0.00368 ± 0.23 | -0.973 ± 0.47
42 | AAAGAGCAAUAUUACGAAGU | -3.28 ± 0.38 | -2.05 ± 0.32
43 | ACUGAGCAAUAUUACGAGCC | -3.59 ± 0.4 | 
44 | CUGAAGCAAUAUUACGGGUG | -0.0462 ± 0.047 | 0.304 ± 0.071
45 | UCGCAGCAAUAUUACGCCGG | -2.67 ± 0.22 | -1.76 ± 0.38
46 | CGGAAGCAAUAUUACGUGUU | -3.75 ± 0.17 | -2.43 ± 0.17
47 | GCGCAGCAAUAUUACGUUCG | -1.7 ± 0.068 | -1.47 ± 0.096
48 | CAAGAGCAAUAUUACGGAGG | -1.85 ± 0.083 | -1.3 ± 0.13
49 | CCCUAGCAAUAUUACGCAGU | -4.87 ± 0.36 | -2.2 ± 0.22
50 | UUUCAGCAAUAUUACGCUUG | -1.3 ± 0.11 | -0.507 ± 0.11
51 | GUCGAGCAAUAUUACGCGCC | -2.74 ± 0.24 | -1.87 ± 0.42
52 | GCUUAGCAAUAUUACGGCGC | -0.263 ± 0.14 | 0.127 ± 0.16

Row | Sequence | self-splicing fitness (ln) (30 °C) | self-splicing fitness (ln) (37 °C)
53 | UGGGAGCAAUAUUACGCUCC |  | -2.7 ± 0.44
54 | AGAUAGCAAUAUUACGCCCC | -1.27 ± 0.26 | -0.202 ± 0.4
55 | UGGGAGCAAUAUUACGGUUC |  | -0.762 ± 0.44
56 | CGGGAGCAAUAUUACGCCUG | -2.39 ± 0.28 | 
57 | CUUUAGCAAUAUUACGUGGC |  | -2.47 ± 0.44
58 | CAACAGCAAUAUUACGCUAU | -3.29 ± 0.17 | -2.25 ± 0.13
59 | GUUCAGCAAUAUUACGAGGC | -2.38 ± 0.48 | -1.27 ± 0.2
60 | UGGGAGCAAUAUUACGAACG | -1.07 ± 0.1 | -0.54 ± 0.16
61 | AUUGAGCAAUAUUACGCUCG | -2.02 ± 0.33 | -0.869 ± 0.22
62 | GCUUAGCAAUAUUACGCGCC | -1.62 ± 0.45 | 
63 | GCGAAGCAAUAUUACGUAGC | -3.43 ± 0.23 | -2.22 ± 0.23
64 | CGUUAGCAAUAUUACGCGCU | -1.9 ± 0.2 | -1.73 ± 0.17
65 | UCGUAGCAAUAUUACGGUAC | -4.6 ± 0.46 | -3.01 ± 0.34
66 | UUCGAGCAAUAUUACGGCGU | -1.44 ± 0.16 | -0.438 ± 0.19
67 | AGAUAGCAAUAUUACGGCGU | -0.0254 ± 0.091 | 0.663 ± 0.1
68 | CACUAGCAAUAUUACGAUGG | -0.786 ± 0.062 | -0.324 ± 0.084
69 | CCGUAGCAAUAUUACGCGUC | -3.42 ± 0.15 | -1.78 ± 0.15
70 | GGCAAGCAAUAUUACGGGUC | -3.2 ± 0.17 | -0.979 ± 0.12
71 | GCCUAGCAAUAUUACGGACC | -1.6 ± 0.19 | -1.31 ± 0.28
72 | AUUAAGCAAUAUUACGGUUU | -0.783 ± 0.07 | 0.254 ± 0.12
73 | AAAGAGCAAUAUUACGCAGG | -3.47 ± 0.24 | -3.45 ± 0.35
74 | UGACAGCAAUAUUACGUACA | -0.21 ± 0.087 | 0.281 ± 0.12
75 | UGCCAGCAAUAUUACGUUUC | -4.47 ± 0.28 | -1.17 ± 0.16
76 | CCCGAGCAAUAUUACGGCUC | -4.18 ± 0.34 | -2.21 ± 0.23
77 | GCAGAGCAAUAUUACGGGGA | -3.65 ± 0.37 | -2.84 ± 0.36
